Results as given in PMC4735607, “Reversal of axonal growth defects in an extraocular fibrosis model by engineering the kinesin–microtubule interface” (Nature Communications, 2016).

What was measured:
Details in all cases: both partners purified
[1] = target: T1, WT microtubules of recombinant human TUBA1B (K40R, treated as WT) and TUBB3 tubulin (human, UniProt P68363-1 1-451; Q13509-1 1-450, K40R); experiment: co-sedimentation; nucleotide-free state: 0.1 µM BG-549-labelled HK349 with varying concentrations of MTs; x2 MA buffer, 1 mg/ml casein, 40 µM taxol, 1 U/ml apyrase; fraction of HK349 in the MT pellet against total MT concentration fitted to a hyperbola
T1 construct: beta3-tubulin TUBB3, Homo sapiens, NP_006077; Polymer of alpha/beta heterodimers, taxol-stabilised; Each tag is joined through a GGSGG linker; also called WT MT; WT MTs; source: HighFive insect cells (baculovirus), purified (DEAE Sepharose, TALON, anti-FLAG resin), polymerized with taxol
T1 sequence (P68363 whole entry K40R, chain 1 of 2): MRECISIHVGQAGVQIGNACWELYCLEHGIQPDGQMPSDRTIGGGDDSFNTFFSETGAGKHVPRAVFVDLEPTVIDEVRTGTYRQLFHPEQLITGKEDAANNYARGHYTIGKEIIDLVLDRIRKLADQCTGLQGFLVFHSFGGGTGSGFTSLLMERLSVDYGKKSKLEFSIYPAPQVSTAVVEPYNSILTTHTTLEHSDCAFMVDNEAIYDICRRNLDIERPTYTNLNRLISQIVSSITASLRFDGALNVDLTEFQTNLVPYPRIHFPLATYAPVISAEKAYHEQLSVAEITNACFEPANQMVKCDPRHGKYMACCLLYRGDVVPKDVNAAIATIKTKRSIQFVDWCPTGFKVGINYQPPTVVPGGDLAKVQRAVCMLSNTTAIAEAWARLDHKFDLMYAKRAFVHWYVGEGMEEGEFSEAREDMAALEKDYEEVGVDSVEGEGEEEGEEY
T1 sequence (Q13509 whole entry, chain 2 of 2): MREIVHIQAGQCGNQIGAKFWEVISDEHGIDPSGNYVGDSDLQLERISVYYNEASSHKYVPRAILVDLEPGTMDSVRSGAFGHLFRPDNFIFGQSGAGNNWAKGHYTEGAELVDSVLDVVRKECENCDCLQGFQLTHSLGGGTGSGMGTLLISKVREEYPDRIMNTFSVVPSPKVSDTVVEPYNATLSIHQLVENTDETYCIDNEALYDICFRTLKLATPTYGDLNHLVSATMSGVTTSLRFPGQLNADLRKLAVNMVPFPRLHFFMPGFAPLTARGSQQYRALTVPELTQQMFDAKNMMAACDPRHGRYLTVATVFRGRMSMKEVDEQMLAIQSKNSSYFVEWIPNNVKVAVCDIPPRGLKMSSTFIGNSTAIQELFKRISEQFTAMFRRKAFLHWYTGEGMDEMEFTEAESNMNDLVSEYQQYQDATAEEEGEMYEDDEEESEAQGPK

[2] = target: T2, beta-R262A microtubules of recombinant human TUBA1B (K40R) and TUBB3 R262A tubulin (human, UniProt P68363-1 1-451; Q13509-1 1-450, K40R | R262A); experiment: as above
T2 construct: beta3-tubulin TUBB3, Homo sapiens, NP_006077, with R262A; Polymer of alpha/beta heterodimers, taxol-stabilised; Each tag is joined through a GGSGG linker; also called β-R262A; R262A MT; source: HighFive insect cells (baculovirus), purified (DEAE Sepharose, TALON, anti-FLAG resin), polymerized with taxol
T2 sequence (P68363 whole entry K40R, chain 1 of 2): as the sequence (P68363 whole entry K40R, chain 1 of 2) above
T2 sequence (Q13509 whole entry R262A, chain 2 of 2): as the sequence (Q13509 whole entry, chain 2 of 2) above, with R262A counted along it

[3] = target: T1, WT microtubules of recombinant human …; experiment: co-sedimentation; ADP state: 0.1 µM BG-549-labelled HK349 with varying concentrations of MTs; x2 MA buffer, 1 mg/ml casein, 40 µM taxol, 1 mM ADP and 1 U/ml hexokinase; fraction of HK349 in the MT pellet against total MT concentration fitted to a hyperbola
[4] = target: T2, beta-R262A microtubules of recombinant …; experiment: as above
[5] = target: T1, WT microtubules of recombinant human …; experiment: co-sedimentation; AMPPNP state: 0.1 µM BG-549-labelled HK349 with varying concentrations of MTs; x2 MA buffer, 1 mg/ml casein, 40 µM taxol, 1 mM AMPPNP and 1 U/ml apyrase; fraction of HK349 in the MT pellet against total MT concentration fitted to a hyperbola
[6] = target: T2, beta-R262A microtubules of recombinant …; experiment: as above

B1: WT KIF5B, single-headed (monomeric) construct HK349 (K349-SNAP-His) (domain or fragment, human, UniProt P33176 1-349, looked up)
chain: MADLAECNIKVMCRFRPLNESEVNRGDKYIAKFQGEDTVVIASKPYAFDRVFQSSTSQEQVYNDCAKKIVKDVLEGYNGTIFAYGQTSSGKTHTMEGKLHDPEGMGIIPRIVQDIFNYIYSMDENLEFHIKVSYFEIYLDKIRDLLDVSKTNLSVHEDKNRVPYVKGCTERFVCSPDEVMDTIDEGKSNRHVAVTNMNEHSSRSHSIFLINVKQENTQTEQKLSGKLYLVDLAGSEKVSKTGAEGAVLDEAKNINKSLSALGNVISALAEGSTYVPYRDSKMTRILQDSLGGNCRTTIVICCSPSSYNESETKSTLLFGQRAKTIKNTVCVNVELTAEQWKKKYEKEKE
modifications: fluorescent dye BG-549 (SNAP-surface 549) on the SNAP tag
notes: kinesin heavy chain KIF5B, human, residues 1-349; also called minimal motor; not shown: SNAP tag, C-terminal, kept
Kd [1]: 0.012 µM | Kd [2]: 0.86 µM | Kd [3]: 6.5 µM | Kd [4]: 36 µM | Kd [5]: 0.029 µM | Kd [6]: 2.5 µM

B2: D279R KIF5B, single-headed (monomeric) construct HK349 (domain or fragment, human, UniProt P33176 1-349, looked up)
chain: MADLAECNIKVMCRFRPLNESEVNRGDKYIAKFQGEDTVVIASKPYAFDRVFQSSTSQEQVYNDCAKKIVKDVLEGYNGTIFAYGQTSSGKTHTMEGKLHDPEGMGIIPRIVQDIFNYIYSMDENLEFHIKVSYFEIYLDKIRDLLDVSKTNLSVHEDKNRVPYVKGCTERFVCSPDEVMDTIDEGKSNRHVAVTNMNEHSSRSHSIFLINVKQENTQTEQKLSGKLYLVDLAGSEKVSKTGAEGAVLDEAKNINKSLSALGNVISALAEGSTYVPYRRSKMTRILQDSLGGNCRTTIVICCSPSSYNESETKSTLLFGQRAKTIKNTVCVNVELTAEQWKKKYEKEKE
modifications: fluorescent dye BG-549 (SNAP-surface 549) on the SNAP tag
notes: kinesin heavy chain KIF5B, human, residues 1-349, with D279R in the L12 loop; also called HK349 D279R; not shown: SNAP tag, C-terminal, kept
Kd [1]: 0.012 µM | Kd [2]: 0.12 µM | Kd [3]: 12 µM | Kd [4]: 14 µM | Kd [5]: 0.01 µM | Kd [6]: 0.05 µM
